Laboratory results: patent publication US20160108118A1 (METABOLIC ENGINEERING LABORATORIES, published 2016)

Columns and labels:
Human CXCL10-His [1] = target: T1, Human CXCL10-His (human, UniProt P02778 22-98); assay: phage ELISA
T1 construct: also called hCXCL10; recombinant human CXCL10 protein; not shown: His tag (named CXCL10-His)
T1 sequence (looked up): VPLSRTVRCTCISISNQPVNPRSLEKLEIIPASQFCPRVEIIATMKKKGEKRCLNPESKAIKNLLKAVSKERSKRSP

Human CXCL10-His [2] = target: T1, Human CXCL10-His; assay: phage ELISA, CXCL10/a-myc
Description: Two types of antigens such as CXCL10 and α-myc were put into a 96-well immunoplate at 100 ng per well and coated with a coating buffer at 4° C. for 16 hours, and wells were blocked with skim milk (4%) dissolved in PBS. Each well was washed with 0.2 ml of PBS-Tween20 (0.05%), and the monoclonal scFv-phages obtained by the third panning (each 100 scFv-phage) were added at 100 μl per well, and allowed to be reacted at room temperature for 2 hours. Each well was washed again with 0.2 ml of PBS-Tween20 (0.05%) four times, and a secondary antibody, anti-M13-HRP, was diluted at 1/2000 and allowed to be reacted at room temperature for 1 hour. Each well was washed with 0.2 ml of PBS-Tween20 (0.05%) and allowed to develop a color to measure an absorbance at 490 nm.

Human CXCL10-His [3] = target: T1, Human CXCL10-His; assay: ELISA, IgG titrated from 50 nM on coated CXCL10
Description: Specifically, ELISA was carried out by coating a recombinant human CXCL10 protein with a coating buffer at 100 ng per well in a 96-well immunoplate at 4° C. for 16 hours, and a reaction in each well was blocked with skim milk (4%) dissolved in PBS. 0.2 ml of PBS-Tween20 (0.05%) was added to wash each well, monoclonal antibodies were sequentially diluted from 50 nM by ½, added at 100 μl each to an antigen-coated plate, and allowed to be reacted at room temperature for 2 hours. 0.2 ml of PBS-Tween20 (0.05%) was added again to wash each well three times, and a secondary antibody, anti-human Fc-HRP, was diluted at 1:4000 and allowed to be reacted at room temperature for 50 minutes. The plate was washed with 0.2 ml of PBS-Tween20 (0.05%), and a substrate solution prepared by adding an OPD table to a PC buffer was added to the plate at 100 μl per well to allow color development for 5 minutes, followed by measuring an absorbance at 490 nm using a spectrophotometer. The ELISA result was analyzed using a Graphpad prism ver. 4 software (CA 92037: Graphpad Software Inc., USA).

[4] = target: T2, His (control coat of Table 2); assay: phage ELISA
T2 construct: Not explained in the text

[5] = target: T3, α-myc (anti-myc antibody coated as second antigen); assay: phage ELISA
T3 construct: Coated at 100 ng per well beside CXCL10 in the phage ELISA; in effect a control of scFv display; also called a-myc

B1: scFv-phage clone 12D (scFv)
chain: QVQLVQSGGGVVQPGRSLRLSCVASAFTFSRYGMHWVRQAPGKGLEWVALISYDGSSEYYADSVKGRFNISRDNSKNTVYLQMNSLRAEDTAVYYCVKDGLAAKLGHWGQGTLVTVSSQAPSLSVSPGQTANIICSGDNLRTKYVSWYQQKPGQSPLLVIYQDTRRPSGIPARFSGSNSGNTATLTISGTQTERESTYYCMTWDVDTTSMIFGGGTKLTVLG
Binder B1 has an OD490 (Human CXCL10-His [1]) of 3.02 and a Ratio (Human CXCL10-His [2]) of 3.4.

B2: anti-CXCL10 antibody 9E (whole IgG) (antibody, V domains shown)
VH: QVQLVESGGGVVQPGRSLRLSCAASGFTFSSYGMHWVRQAPGKGLEWVAVISYDGNNKYYVDSVKGRFTISRDNSKNTLYLQMNSLRSEDTAVYYCARDSGSYLDWYFDLWGRGTLVTVSS
VL: QPPSVSVAPGKTARIACGGGNIGDKSVHWYQQKPGQAPVLVIFYDSDRPSGIPKRLSGSNSGNTATLTISRVEAGDEGDYYCQVWDSSSDRPVFGGGTKLTVLG
notes: Whole-form IgG
B2 gave a Kd (Human CXCL10-His [3]) of 6.1 pM.

B3: anti-CXCL10 antibody 10E (whole IgG) (antibody, V domains shown)
VH: QVQLVQSGGGVVQPGRSLRLSCAASGFTFNSYGMHWVRQAPGKGPEWVAVISYDGNSKYYADSVKGRFTISRDNSKTTLYLQMNSLRSEDTAVYYCARDSGSYLDWYFDLWGRGTLVTVSS
VL: QPPSVSGAPGQRVTISCTGSRSNFGAGHDVHWYQQLPGTAPKLLIYGNNNRPSGVPDRFSGSKSGTSASLAITGLQAEDEADYYCQSYDSRLGVVFGGGTKLTVLG
notes: also called E10
B3 showed a Kd (Human CXCL10-His [3]) of 7 pM.

B4: anti-CXCL10 antibody 12D (whole IgG) (antibody, V domains shown)
VH: QVQLVQSGGGVVQPGRSLRLSCVASAFTFSRYGMHWVRQAPGKGLEWVALISYDGSSEYYADSVKGRFNISRDNSKNTVYLQMNSLRAEDTAVYYCVKDGLAAKLGHWGQGTLVTVSS
VL: QAPSLSVSPGQTANIICSGDNLRTKYVSWYQQKPGQSPLLVIYQDTRRPSGIPARFSGSNSGNTATLTISGTQTERESTYYCMTWDVDTTSMIFGGGTKLTVLG
notes: Whole-form IgG
For B4, the Kd (Human CXCL10-His [3]) was 4.7 pM.

B5: scFv-phage clone 9E (scFv)
chain: QVQLVESGGGVVQPGRSLRLSCAASGFTFSSYGMHWVRQAPGKGLEWVAVISYDGNNKYYVDSVKGRFTISRDNSKNTLYLQMNSLRSEDTAVYYCARDSGSYLDWYFDLWGRGTLVTVSSQPPSVSVAPGKTARIACGGGNIGDKSVHWYQQKPGQAPVLVIFYDSDRPSGIPKRLSGSNSGNTATLTISRVEAGDEGDYYCQVWDSSSDRPVFGGGTKLTVLG
In the case of B5, the OD490 (Human CXCL10-His [1]) is reported as 2.96 and the Ratio (Human CXCL10-His [2]) is reported as 1.48.

B6: scFv-phage clone 10D (scFv)
scFv: QVQLVQSGGGVVQPGRSLRLSCAASGFTFSSYGMHWVRQAPGKGLEWVAVISYDGSNKYYADSVKGRFTISRDNSKNTLYLQMNSLRSEDTAVYYCARDKRAAFDIWGQGKMVTVSSGLGGLGGGGSGGGGSGGSSGVGSSYELTQAPSLSVSPGQTANIICSGDNLRTKYVSWYQQKPGQSPLLVIYQDTRRPSGIPARFSGSNSGNTATLTISGTQTERESTYYCMTWDVDTTSMIFGGGTKLTVL
Work on B6 yielded an OD490 (Human CXCL10-His [1]) of 2.85, an OD490 [4] of 0.178 and a Ratio (Human CXCL10-His [2]) of 0.945.

B7: scFv-phage clone 10E (scFv)
scFv: QVQLVQSGGGVVQPGRSLRLSCAASGFTFNSYGMHWVRQAPGKGPEWVAVISYDGNSKYYADSVKGRFTISRDNSKTTLYLQMNSLRSEDTAVYYCARDSGSYLDWYFDLWGRGTLVTVSSGLGGLGGGGSGGGGSGGSSGVGSQFVLTQPPSVSGAPGQRVTISCTGSRSNFGAGHDVHWYQQLPGTAPKLLIYGNNNRPSGVPDRFSGSKSGTSASLAITGLQAEDEADYYCQSYDSRLGVVFGGGTKLTVL
notes: also called E10 scFv
B7 gave an OD490 (Human CXCL10-His [1]) of 3.05, an OD490 [5] of 0.307 and an OD490 [4] of 0.051. For the same binder, the Ratio (Human CXCL10-His [2]) was 9.95.
